Experimental findings from paper PMC11148541 (Cancer Immunology Research, 2024) are described below.

In this assay the target is T1, mouse IL18BPd-Fc (mouse, UniProt Q9Z0M9 29-193).
T1 sequence: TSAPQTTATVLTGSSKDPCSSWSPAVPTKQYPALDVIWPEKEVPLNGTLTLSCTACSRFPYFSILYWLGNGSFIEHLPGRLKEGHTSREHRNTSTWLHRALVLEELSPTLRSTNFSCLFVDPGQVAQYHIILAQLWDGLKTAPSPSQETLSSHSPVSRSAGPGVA
The experiment in a line: KinExA.

B1: mouse IL18 (ligand)
chain: NFGRLHCTTAVIRNINDQVLFVDKRQPVFEDMTDIDQSASEPQTRLIIYMYKDSEVRGLAVTLSVKDSKMSTLSCKNKIISFEEMDPPENIDDIQSDLIFFQKRVPGHNKMEFESSLYEGHFLACQKEDDAFKLILKKKDENGDKSVMFTLTNLHQS
For the molecule B1, the Kd is 3.7 pM. In other words, the picomolar range.
